Assay [1] relates to EBV latency C promoter (Cp-CAT). The experiment in a line: Cp-CAT transactivation by EBNA2 effector DNAs cotransfected in DG75 cells. It counts as cell-based, Epstein-Barr virus. The settings on record: for transactivation of Cp-CAT, dose-response, in words: 0-2.0 μg effector DNA, 2 μg target; for % Transactivation: relative EBNA2 transactivation of the Cp, at DNA concentrations giving 50% acetylation for wild-type EBNA2, mutations in full-length EBNA2. On the procedure:
FIGS. 4A-4B are graphs that depict μg effector versus % acetylation for transactivation in DG75 cells of a Cp-CAT construction (Ling et al. (1993b), supra) cotransfected at 2 μg with increasing amounts (i.e., 0, 0.25, 0.5, 1.0 and 2.0 μg) of the indicated EBNA2 effector DNAs. Immunoblot analysis confirmed the equivalent expression of the different EBNA2 effector constructions in transfected cells.
FIGS. 7A-7B are graphs that depict μg effector versus fold-induction for cotransfection assays comparing the ability of type A EBNA2 and type B EBNA2 to transactivate expression from Cp-CAT (FIG. 7A) and CD23p-CAT (FIG. 7B) (Ling et al. (1994), supra) in DG75 cells. The target plasmids were transfected at a constant amount (2 μg) and the effector DNAs at increasing amounts of 0, 0.25, 0.5, 1.0 and 2.0 μg.
In order to correlate the effect of the mutations on CBF1 interaction measured in the in vitro binding assays with the effects on CBF1 interaction in vivo in cultured cells, the point mutations and the glycine-arginine deletion were incorporated into full-length EBNA2 proteins which were used to study EBNA2 targeting in transactivation assays. The mutant proteins were synthesized in equal abundance in transfected cells as assessed by Western blot analysis. FIGS. 4A and 4B compare the ability of wild-type and mutant EBNA2 proteins to transactivate expression from the EBV latency C promoter in a dose-response assay (Ling et al. (1993b), supra).

A further assay addresses T1, CBF1/RBPJk (Homo sapiens, UniProt Q06330).
T1 construct: EMSA using CBF1 purified by heparin-agarose chromatography; endogenous in cells; host or cells: CA46 cells (fractionated extract, heparin-agarose)
Description: EMSA of EBNA2/CBF1 complex formation with in vitro translated EBNA2 peptides. The settings on record: for effect in reducing the amounts of EBNA2/CBF1 complex formed: fold, in words. It counts as binding. The text has this: FIG. 3 is an autoradiogram that depicts the effect of mutations on the ability of an EBNA2 (i.e., E2) peptide comprising amino acids 252-425 to interact with CBF1/RBPJk: probe (lane 1); E2 only (lane 2); lysate (lane 3); CBF1 (lane 4); CBF1 and lysate (lane 5); CBF1 and E2 252-425 (lane 6); CBF1 and del376-425 (lane 7); CBF1 and del343-425 (lane 8); CBF1 and del252-366 (lane 9); CBF1 and del252-309, del398-425 (lane 10); CBF1 and del344-357 (lane 11); CBF1 and II307SR (CR5) (lane 12); CBF1 and GP320SR (CR6) (lane 13); CBF1 and WW323SR (CR6) (lane 14); CBF1 and PI326SR (CR6) (lane 15); CBF1 and SR360VD (PKC) (lane 16); and CBF1 and LGL389SRT (CR7) (lane 17). Results of an EMSA using CBF1 purified by heparin-agarose chromatography and a 30-base pair oligonucleotide probe containing the Cp CBF1 binding site (Ling et al. (1993a), supra) are shown. The wild-type EBNA2 and mutant EBNA2 peptides spanning amino acids 252-425 were in vitro transcribed and translated, and equimolar amounts were added to the binding reactions. Addition of unprogrammed reticulocyte lysate to the CBF1 extract (+lysate) produced a minor bandshift that migrated in the range of the E2/CBF1 complex. The EBNA2/CBF1 complexes (i.e., E2/CBF1 complexes) vary in mobility depending on the size of the added EBNA2 peptide.
FIG. 6 is an EMSA that compares the ability of type A EBNA2 (i.e., EBNA2 comprising amino acids 252-425) and the homologous domains of type B (i.e., EBNA2 comprising amino acids 216-392) and HVP EBNA2 (i.e., HBP EBNA2 comprising amino acids 288-470) to form complexes with CBF1/RBPJk. The EBNA2 peptides and CBF1/RPBPJk were prepared by in vitro transcription and translation. EBNA2 peptides were added with two-fold increases in amount (black triangles) to a binding mixture containing a constant amount of CBF1/RBPJk and a 30-base pair Cp CBF1 binding site probe. Symbols: P, probe only; R, reticulolysate.
The relative positions of the various functional domains the EBNA2 protein are depicted in FIG. 1. To define the amino acids required for interaction with CBF1, various synthetic peptides comprising the promoter targeting domain (i.e., the CBF1/RBPJk interaction domain) were constructed. The truncated and mutated peptides diagrammed in FIG. 2 were synthesized by in vitro transcription-translation, and were tested for their ability to form complexes with CBF1 that could be detected in an electrophoretic mobility shift assay (EMSA) (Ling et al., J. Virol., 69, 1944-1950 (1995)). The expressed peptides were tested using a fractionated extract of EBV negative lymphoblastoid CA46 cells (American Type Culture Collection, Rockville, Md.). The peptides were labeled with ^35S-methionine, and their integrity was confirmed by sodium dodecylsulfate sulfate-polyacrylamide gel electrophoresis (SDS-PAGE). To ensure that equal amounts of the EBNA2 peptides were added to each binding reaction mixture, the SDS-PAGE bands were quantitated using a Molecular Dynamics Phosphorimager, and the volume of the samples was adjusted on the basis of peptide size and the number of methionine residues.
In general terms: In EMSA bound probe runs differently from free probe, usually more slowly.

T1 sequence (Q06330 whole entry): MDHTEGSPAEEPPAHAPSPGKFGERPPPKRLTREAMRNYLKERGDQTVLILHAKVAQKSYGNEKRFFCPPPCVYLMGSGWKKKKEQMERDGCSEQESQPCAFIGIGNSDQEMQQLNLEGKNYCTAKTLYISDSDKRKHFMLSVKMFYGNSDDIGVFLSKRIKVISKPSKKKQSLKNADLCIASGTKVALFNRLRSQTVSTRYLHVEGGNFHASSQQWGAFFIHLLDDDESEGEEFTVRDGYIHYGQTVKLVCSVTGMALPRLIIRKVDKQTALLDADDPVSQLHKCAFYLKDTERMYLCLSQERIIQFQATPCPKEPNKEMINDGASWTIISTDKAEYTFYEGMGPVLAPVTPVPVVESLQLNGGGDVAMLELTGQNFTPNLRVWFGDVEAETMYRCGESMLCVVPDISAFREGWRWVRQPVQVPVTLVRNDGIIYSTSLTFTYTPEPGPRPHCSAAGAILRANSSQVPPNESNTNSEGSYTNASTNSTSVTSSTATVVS

B1: SR360VD (PKC): EBNA2 with mutation of the putative PKC phosphorylation site (protein)
chain: MPTFYLALHGGQTYHLIVDTDSLGNPSLSVIPSNPYQEQLSDTPLIPLTIFVGENTGVPPPLPPPPPPPPPPPPPPPPPPPPPPPPPPSPPPPPPPPPPPQRRDAWTQEPSPLDRDPLGYDVGHGPLASAMRMLWMANYIVRQSRGDRGLILPQGPQTAPQARLVQPHVPPLRPTAPTILSPLSQPRLTPPQPLMMPPRPTPPTPLPPATLTVPPRPTRPTTLPPTPLLTVLQRPTELQPTPSPPRMHLPVLHVPDQSMHPLTHQSTPNDPDSPEPRSPTVFYNIPPMPLPPSQLPPPAAPAQPPPGVINDQQLHHLPSGPPWWPPICDPPQPSKTQGQSRGQSRGRGRGRGRGRGKGKVDDKQRKPGGPWRPEPNTSSPSMPELSPVLGLHQGQGAGDSPTPGPSNAAPVCRNSHTATPNVSPIHEPESHNSPEAPILFPDDWYPPSIDPADLDESWDYIFETTESPSSDEDYVEGPSKRPRPSIQ
Consider B1, for which, in assay [1], the “transactivation of Cp-CAT, dose-response, in words” value was “did not affect transactivation” and the “% Transactivation” value was 110%. The “reduction in EBNA2/CBF1 complex formation” value with CBF1/RBPJk (252-425 peptide with mutation, relative to wild-type peptide) came to 40%. The “effect in reducing the amounts of EBNA2/CBF1 complex formed” value with CBF1/RBPJk was “approximately two-fold”.

B2: LGL389SRT (CR7): EBNA2 with LGL at position 389 in CR7 changed to SRT (protein)
chain: MPTFYLALHGGQTYHLIVDTDSLGNPSLSVIPSNPYQEQLSDTPLIPLTIFVGENTGVPPPLPPPPPPPPPPPPPPPPPPPPPPPPPPSPPPPPPPPPPPQRRDAWTQEPSPLDRDPLGYDVGHGPLASAMRMLWMANYIVRQSRGDRGLILPQGPQTAPQARLVQPHVPPLRPTAPTILSPLSQPRLTPPQPLMMPPRPTPPTPLPPATLTVPPRPTRPTTLPPTPLLTVLQRPTELQPTPSPPRMHLPVLHVPDQSMHPLTHQSTPNDPDSPEPRSPTVFYNIPPMPLPPSQLPPPAAPAQPPPGVINDQQLHHLPSGPPWWPPICDPPQPSKTQGQSRGQSRGRGRGRGRGRGKGKSRDKQRKPGGPWRPEPNTSSPSMPELSPVSRTHQGQGAGDSPTPGPSNAAPVCRNSHTATPNVSPIHEPESHNSPEAPILFPDDWYPPSIDPADLDESWDYIFETTESPSSDEDYVEGPSKRPRPSIQ
For B2, in assay [1], the “transactivation of Cp-CAT, dose-response, in words” value is given as “did not affect transactivation” and the “% Transactivation” value was found to be 100%. In addition, in the assay with CBF1/RBPJk, the “effect in reducing the amounts of EBNA2/CBF1 complex formed” value is “approximately two-fold”.
